These results are taken from US20250090676A1.

The test concerns the target human folate receptor alpha on cells (human) (UniProt P15328). The test is described as follows: cell-based or functional assay.

human folate receptor alpha on cells (human), sequence (P15328 25-234 limits assumed): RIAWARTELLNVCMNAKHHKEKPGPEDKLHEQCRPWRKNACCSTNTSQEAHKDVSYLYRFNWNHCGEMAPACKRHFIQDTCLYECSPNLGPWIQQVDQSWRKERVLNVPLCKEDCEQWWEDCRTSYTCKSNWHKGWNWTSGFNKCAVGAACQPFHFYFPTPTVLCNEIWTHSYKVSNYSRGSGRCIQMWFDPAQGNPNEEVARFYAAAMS

In the case of “ADC Molecule 21 (Mov19-sulfo-SPDB-DM4) (antibody)”, the fold shift of cell killing EC50 on Igrov1 cells on addition of naked antibody came to 3 fold.
